This note sets out measurements from US20160158369A1, “PHARMACEUTICAL COMPOSITION FOR RESPIRATORY ADMINISTRATION” (SEIKAGAKU CORPORATION, priority 2013, published 2016).

“And” between values parts separate entries of the source, which are not always exact repeats. Equal entries are not always repeated.

The series in a line: Drug dissociation test: polysaccharide derivative in buffer solution, 36°C, 1 week, HPLC. The class given is physicochemical. The method, then: In the examples relating to drug dissociation test, the drug dissociation ratio was evaluated as described below.
Sodium dihydrogen phosphate dihydrate (780 mg (5.0 mmol)) was dissolved in 500 mL of distilled water to give a liquid A. Separately, disodium hydrogen phosphate dodecahydrate (1.79 g (5.0 mmol)) was dissolved in 500 mL of distilled water to give a liquid B. By mixing the liquid A and liquid B at ratio of 2:3, a phosphate buffer solution of pH 7.5 was prepared.
0.62 g (10 mmol) of boric acid and 0.75 g (10 mmol) of potassium chloride were weighed and dissolved in 500 mL of distilled water to give a liquid C. Separately, by diluting 0.1 N sodium hydroxide solution with distilled water (×10 dilution), a liquid D was prepared.
50 mL of the liquid C and 7 mL of the liquid D were added to a 100 mL mess flask, and according to dilution to 100 mL with distilled water, a borate buffer solution of pH 8.0 was prepared. Furthermore, 50 mL of the liquid C and 40 mL of the liquid D were added to a 100 mL mess flask, and according to mess-up to 100 mL with distilled water, a borate buffer solution of pH 9.0 was prepared.
Each polysaccharide derivative obtained from above was dissolved in a buffer solution at each pH so as to have a concentration of 5 mg/10 mL, and heated for 1 week in an incubator at 36° C. Then, the drug dissociation ratio during the incubation was evaluated every 24 hours by liquid chromatography (HPLC).
The evaluation was performed by measuring the ratio between the drug amount remained in a polysaccharide derivative and the dissociated drug amount according to use of a size exclusion chromatography column (manufactured by TOSOH, TSKgel α-6000, 7.8 mmI.D.×30 cm).
Detailed conditions for the liquid chromatography are as follows.
Analysis time: 40 minutes
Solution for elution: acetonitrile (for HPLC):physiological saline=1:2
Detector: UV detector (240 nm)

Regarding “Chondroitin Sulfate Introduced with Seratrodast [Compound xxiii]”, the “Dissociation ratio (%/day)” value by setting is: (pH 7.4, 36°C) 0.1 %/day; (pH 8.0, 36°C) 0.2 %/day. For the same substance, the drug dissociation ratio by setting is: (pH 7.4, 36°C, day 0) 0.0%; (pH 7.4, 36°C, day 1) 0.0%; (pH 7.4, 36°C, day 2) 0.2%; (pH 7.4, 36°C, day 3) 0.3%; (pH 7.4, 36°C, day 4) 0.3%; (pH 7.4, 36°C, day 5) 0.4%. Besides, the drug dissociation ratio (pH 7.4, 36°C, day 6) worked out at 0.5%; the drug dissociation ratio (pH 7.4, 36°C, day 7) turned out to be 0.6%; the drug dissociation ratio (pH 8.0, 36°C, day 0) was found to be 0.0%; the drug dissociation ratio (pH 8.0, 36°C, day 1) stood at 0.2%; the drug dissociation ratio (pH 8.0, 36°C, day 2) amounted to 0.4%; the drug dissociation ratio (pH 8.0, 36°C, day 3) is given as 0.6%. The drug dissociation ratio came to 0.7% (pH 8.0, 36°C, day 4); 0.9% (pH 8.0, 36°C, day 5); 1.1% (pH 8.0, 36°C, day 6); 1.3% (pH 8.0, 36°C, day 7).
On to “Chondroitin Sulfate Introduced with 11-(2-Fluoro-β-Alanyl)-Propionic Acid Fluticasone [Compound viii]”, for which the “Dissociation ratio (%/day)” value is 3.1 %/day (pH 7.4, 36°C) and 10.1 %/day (pH 8.0, 36°C). Moreover, the drug dissociation ratio reads like this: (pH 7.4, 36°C, day 0) 0.1%; (pH 7.4, 36°C, day 1) 7.9%; (pH 7.4, 36°C, day 2) 4.9%; (pH 7.4, 36°C, day 3) 12.7%; (pH 7.4, 36°C, day 4) 8.4%; (pH 7.4, 36°C, day 5) 15.2%. The drug dissociation ratio reads like this: (pH 7.4, 36°C, day 6) 14.3%; (pH 7.4, 36°C, day 7) 21.8%; (pH 8.0, 36°C, day 0) 0.3%; (pH 8.0, 36°C, day 1) 14.8%; (pH 8.0, 36°C, day 2) 26.3%; (pH 8.0, 36°C, day 3) 27.1%. Besides, the drug dissociation ratio by setting is: (pH 8.0, 36°C, day 4) 29.8%; (pH 8.0, 36°C, day 5) 64.5%; (pH 8.0, 36°C, day 6) 47.4%; (pH 8.0, 36°C, day 7) 70.9%.
For the substance “Chondroitin Sulfate Introduced with 11-Glycyl-Propionic Acid Fluticasone [Compound xvii]”, the “Dissociation ratio (%/day)” value is, setting by setting: (pH 7.4, phosphate buffer solution/acetonitrile (1:1), 36°C) 0.4 %/day; (pH 8.0, borate buffer solution/acetonitrile (1:1), 36°C) 3.3 %/day. The drug dissociation ratio was 0.0% (pH 7.4, phosphate buffer solution/acetonitrile (1:1), 36°C, day 0); 0.3% (pH 7.4, phosphate buffer solution/acetonitrile (1:1), 36°C, day 1); 0.7% (pH 7.4, phosphate buffer solution/acetonitrile (1:1), 36°C, day 2); 1.3% (pH 7.4, phosphate buffer solution/acetonitrile (1:1), 36°C, day 3); 1.9% (pH 7.4, phosphate buffer solution/acetonitrile (1:1), 36°C, day 4); 2.3% (pH 7.4, phosphate buffer solution/acetonitrile (1:1), 36°C, day 5). In addition, the drug dissociation ratio is, setting by setting: (pH 7.4, phosphate buffer solution/acetonitrile (1:1), 36°C, day 6) 2.5%; (pH 7.4, phosphate buffer solution/acetonitrile (1:1), 36°C, day 7) 2.9%; (pH 8.0, borate buffer solution/acetonitrile (1:1), 36°C, day 0) 0.0%; (pH 8.0, borate buffer solution/acetonitrile (1:1), 36°C, day 1) 4.6%; (pH 8.0, borate buffer solution/acetonitrile (1:1), 36°C, day 2) 10.1%; (pH 8.0, borate buffer solution/acetonitrile (1:1), 36°C, day 3) 14.1%. The drug dissociation ratio (pH 8.0, borate buffer solution/acetonitrile (1:1), 36°C, day 4) is reported as 17.8%; the drug dissociation ratio (pH 8.0, borate buffer solution/acetonitrile (1:1), 36°C, day 5) is reported as 18.9%; the drug dissociation ratio (pH 8.0, borate buffer solution/acetonitrile (1:1), 36°C, day 6) was determined as 20.0%; the drug dissociation ratio (pH 8.0, borate buffer solution/acetonitrile (1:1), 36°C, day 7) was 22.8%.
Take “Chondroitin Sulfate Introduced with 21-β-Alanyl-Budesonide (20 kDa) [Compound vb]”: the “Dissociation ratio (%/day)” value (pH 7.4, 36°C) was 0.9 %/day and the “Dissociation ratio (%/day)” value (pH 8.0, 36°C) came out at 1.5 %/day. Further, the drug dissociation ratio reads like this: (pH 7.4, 36°C, day 0) 0.3%; (pH 7.4, 36°C, day 1) 1.2%; (pH 7.4, 36°C, day 2) 2.4%; (pH 7.4, 36°C, day 3) 3.0%; (pH 7.4, 36°C, day 4) 3.6%; (pH 7.4, 36°C, day 5) 4.0%. Moreover, the drug dissociation ratio by setting is: (pH 7.4, 36°C, day 6) 5.1%; (pH 7.4, 36°C, day 7) 6.4%; (pH 8.0, 36°C, day 0) 0.2%; (pH 8.0, 36°C, day 1) 1.2%; (pH 8.0, 36°C, day 2) 1.7%; (pH 8.0, 36°C, day 3) 2.9%. The drug dissociation ratio (pH 8.0, 36°C, day 4) was determined as 5.5%; the drug dissociation ratio (pH 8.0, 36°C, day 5) was 7.6%; the drug dissociation ratio (pH 8.0, 36°C, day 6) was found to be 8.9%; the drug dissociation ratio (pH 8.0, 36°C, day 7) was found to be 10.8%.
In the case of “Chondroitin Sulfate Introduced with 21-β-Alanyl-Budesonide (10 kDa) [Compound vc]”, the “Dissociation ratio (%/day)” value by setting is: (pH 7.4, 36°C) 1.2 %/day; (pH 8.0, 36°C) 2.0 %/day. For the same substance, the drug dissociation ratio worked out at 0.4% (pH 7.4, 36°C, day 0); 1.6% (pH 7.4, 36°C, day 1); 2.8% (pH 7.4, 36°C, day 2); 3.7% (pH 7.4, 36°C, day 3); 4.8% (pH 7.4, 36°C, day 4); 5.3% (pH 7.4, 36°C, day 5). Also, the drug dissociation ratio reads like this: (pH 7.4, 36°C, day 6) 6.8%; (pH 7.4, 36°C, day 7) 8.5%; (pH 8.0, 36°C, day 0) 0.1%; (pH 8.0, 36°C, day 1) 1.9%; (pH 8.0, 36°C, day 2) 2.4%; (pH 8.0, 36°C, day 3) 3.9%. The drug dissociation ratio was determined as 7.6% (pH 8.0, 36°C, day 4); 9.7% (pH 8.0, 36°C, day 5); 11.2% (pH 8.0, 36°C, day 6); 14.0% (pH 8.0, 36°C, day 7).
For “Chondroitin Sulfate Introduced with β-Alanyl-Proxyphylline [Compound xxiia]”, the “Dissociation ratio (%/day)” value reads like this: (pH 7.4, 36°C) 0.2 %/day; (pH 8.0, 36°C) 0.4 %/day. The drug dissociation ratio reads like this: (pH 7.4, 36°C, day 0) 0.0%; (pH 7.4, 36°C, day 1) 0.0%; (pH 7.4, 36°C, day 2) 0.0%; (pH 7.4, 36°C, day 3) 0.0%; (pH 7.4, 36°C, day 4) 0.0%; (pH 7.4, 36°C, day 5) 0.0%. Moreover, the drug dissociation ratio runs as follows: (pH 7.4, 36°C, day 6) 0.8%; (pH 7.4, 36°C, day 7) 1.3%; (pH 8.0, 36°C, day 0) 0.0%; (pH 8.0, 36°C, day 1) 0.0%; (pH 8.0, 36°C, day 2) 0.0%; (pH 8.0, 36°C, day 3) 1.2%. The drug dissociation ratio worked out at 1.6% (pH 8.0, 36°C, day 4); 2.0% (pH 8.0, 36°C, day 5); 2.3% (pH 8.0, 36°C, day 6); 2.6% (pH 8.0, 36°C, day 7).
With “Carboxymethyl Cellulose (500) Introduced with 21-β-Alanyl-Budesonide [Compound xxa]”, the “Dissociation ratio (%/day)” value by setting is: (pH 7.4, 36°C) 2.8 %/day and 2.6 %/day; (pH 7.5, 36°C) 2.8 %/day; (pH 8.0, 36°C) 5.7 %/day and 5.5 %/day. Also, the drug dissociation ratio by setting is: (pH 7.5, 36°C, day 0) 2.0%; (pH 7.5, 36°C, day 1) 4.8%; (pH 7.5, 36°C, day 2) 7.4%; (pH 7.5, 36°C, day 3) 10.0%; (pH 7.5, 36°C, day 4) 12.6%; (pH 7.5, 36°C, day 5) 15.0%. Also, the drug dissociation ratio turned out to be 17.4% (pH 7.5, 36°C, day 6); 19.8% (pH 7.5, 36°C, day 7); 2.7% (pH 8.0, 36°C, day 0); 9.9% (pH 8.0, 36°C, day 1); 16.4% (pH 8.0, 36°C, day 2); 22.1% (pH 8.0, 36°C, day 3). Also, the drug dissociation ratio runs as follows: (pH 8.0, 36°C, day 4) 27.1%; (pH 8.0, 36°C, day 5) 31.7%; (pH 8.0, 36°C, day 6) 35.9%; (pH 8.0, 36°C, day 7) 39.6%.
